{
  "source": "patent US20250296985A1",
  "about": "(TRANSLATIONAL HEALTH SCIENCE AND TECHNOLOGY INSTITUTE, published 2025)",
  "binders": {"B1": {"name": "THSC20.HVTR39 (antibody, V domains shown)", "V domain 1": "QVQLQESGPGLVRPSETLSLTCIVSGGSINSRSYSWGWIRQPPGKGLEWIGNVYYSGTTYYNPSLKSRVTISVDTSKNQFSLNLSSVTAADTAVYYCARNLFYYDRSGSSHHDAFDIWGQGTMVTVSS", "V domain 2": "HGYVRPLSVAPGQTARITCGGNNIGSKSVHWYQQKPGQAPVLVVYGDGDRPSGIPERFSGSNSGNTATLTISRVEAGDEADYYCQVWDRGSDVWVFG"}, "B2": {"name": "THSC20.HVTR55 (antibody, V domains shown)", "VH": "EVQLVQSGAEVKKPGESLRISCKGSGFRFTNYWIGWVRQMPGKGLEWMGIIYPGDSDTRYSPSFQGQVTISADKSLSTAYLQWSSLQASDTAIYYCARRDRWELDPLDYWGQGTLVTVSS", "VL": "DIVMTQSPSTLSASVGDRVTITCRASQSISSWLAWYQQKPGKAPNLLIYKASSLESGVPSRFSGSGSGTEFTLTISGLQPDDFATYYCQHYNGYPYTFGQGTKLEIK"}, "B3": {"name": "THSC20.HVTR04 (antibody, V domains shown)", "VH": "QVQLVESGGGVVQPGRSLRLSCAASGFTFSNYAIHWVRQAPGKGLEWVAVVSYDGSNKYYAESVKGRFTISRDNSKNTLSLQMISLRPEDTAVYYCASVADTAMVPEWYFDLWGRGTLVTVSS", "VL": "QSVLTQPRSVSGSPGQSVTISCTGTSSDVGAYNYVSWYQQHPGKAPKLMIYDVSARPSGVPDRFSGSKSGNTASLTISGLQAEDEADYYCCSYAGSWVFGGGTKLTVL"}, "B4": {"name": "THSC20.HVTR06 (antibody, V domains shown)", "VH": "QLQLVQSGSELKKPGASVKVSCKASGYTFTKYTVNWVRQAPGQGLEWMGWINTNTGNPTSAQGFTGRFVFSLDTSVSTAYLHISSLKTEDTAVYYCARVLGDQQVVGGDDYYYYYAMDVWGQGTPVTVSS", "VL": "SYELTQPPSVSVSPGQTASITCSGDKLGDKYASWYQQKPGQSPVLVIYQDTKRPSGIPERFSGSNSGNTATLTITGTQAMDETDYYCQAWDNSGWVFGGGTKLTVL"}, "B5": {"name": "THSC20.HVTR11 (antibody, V domains shown)", "VH": "EVQLVQSGAEVKKPGSSVKVSCKASGGTFSSYTISWVRQAPGQGLEWMGRIIPILGIANYAQKFQGRVTITADKSTSTACMELSSLRSEDTAVYFCARIRGYSGYGSSYYFDYWGQGTLVTVSS", "VL": "QSVLTQPPSVSGAPGQRVTISCTGSSSNIGAGYDVHWYQQLPGTAPKLLIYGNSNRPSGVPDRFSGSKSGTSASLAITGLQAEDEADYYCQSYDSSLSHEVFGGGTKLTVL"}, "B6": {"name": "THSC20.HVTR88 (antibody, V domains shown)", "VH": "QVQLVQSGAEVKKPGASVKVSCKASGYPFTSYVISWVRQAPGQGLEWMGWISAYNGNTDYAQKLQGRVTMTTDTSTSTAYMELRSLRSDDTAVYYCAREGKYSSGWSYSEYFDYWGQGTLVTVSS", "VL": "not shown"}, "B7": {"name": "THSC20.HVTR26 (antibody, V domains shown)", "VH": "EVQLVESGGGLVQPGGSLRLSCAASGFTVSSNYMSWVRQAPGKGLEWVSAIYSGDSTYYADSVKGRFTISRHNPKNTLYLQMNSLRAEDTAVYYCARLVGALTNIVVSGDGGAFDIWGQGTMVTVSS", "VL": "SYELTQPASVSGSPGQSITISCTGTSSDVGSYNLVSWYQQHPGKAPKLMIYEVSKRPSGVSNRFSGSKSGNTASLTISGLQAEDEVDYYCCSYAGSSTWVFGGGTKLTVL"}},
  "key": {"[1]": {"molecular_target": "T1, Biotinylated wild type SARS-CoV-2 receptor binding domain (RBD) antigen (SARS-CoV-2, Wuhan isolate (wild type), UniProt P0DTC2 319-541)"}, "[2]": {"molecular_target": "T1, Biotinylated wild type SARS-CoV-2 …", "remark": "listed apart in the source"}},
  "note": "Like-named read-outs stand apart in the source and are kept apart here.",
  "data": [
    {"binder": "B1", "values": [
      {"measurement": "Kd", "setting": "[1]", "value": 0.513, "unit": "nM"}
    ]},
    {"binder": "B2", "values": [
      {"measurement": "Kd", "setting": "[1]", "value": "< 0.001", "unit": "nM"},
      {"measurement": "koff", "setting": "[1]", "value": "< 1e-07", "unit": "s⁻¹"}
    ]},
    {"binder": "B3", "values": [
      {"measurement": "Kd", "setting": "[2]", "value": 0.19, "unit": "nM"},
      {"measurement": "Kd", "setting": "[1]", "value": 0.196, "unit": "nM"}
    ]},
    {"binder": "B4", "values": [
      {"measurement": "Kd", "setting": "[1]", "value": 0.635, "unit": "nM"}
    ]},
    {"binder": "B5", "values": [
      {"measurement": "Kd", "setting": "[1]", "value": "< 0.001", "unit": "nM"},
      {"measurement": "koff", "setting": "[1]", "value": "< 1e-07", "unit": "s⁻¹"},
      {"measurement": "kon", "setting": "[1]", "value": 103000, "unit": "M⁻¹ s⁻¹"}
    ]},
    {"binder": "B6", "values": [
      {"measurement": "Kd", "setting": "[1]", "value": 0.427, "unit": "nM"}
    ]},
    {"binder": "B7", "values": [
      {"measurement": "Kd", "setting": "[2]", "value": 0.22, "unit": "nM"},
      {"measurement": "Kd", "setting": "[1]", "value": 0.255, "unit": "nM"}
    ]}
  ]
}
